Biological target: HLA-DR on BJAB cells (human (endogenous in BJAB))
Assay: flow cytometry on cells; full antibody titration of purified IgGs on HLA-DR-expressing BJAB cells, Fc Block, 1 h at 4 °C, detected with AF488 goat anti-human IgG Fcγ; also after storage of the IgGs at -20, 4 or 40 °C for up to 4 weeks

- fold difference in EC50 against parental 44H10: > 50 fold
B1: humanized 44H10 version 17 IgG (antibody, V domains shown)
VH: QVTLKESGPVLVKPTETLTLTCTVSGFSLTSYGVHWIRQPPGKALEWLAVIWAGGSISYSTSLMSRLTISKDTSKSQVVLTMTNMDPVDTATYYCARAYGDYVHYAMDYWGQGTLVTVSS
VL: DIQMTQSPSSLSASVGDRVTITCRASQEISGYLTWLQQKPGKAPKLLIYAASTLDSGVPSRFSGSGSGTDFTLTISSLQPEDFATYYCLQYTNYPLTFGQGTKLEIK
